In the RNAGym collection of RNA variant scans (doi:10.1073/pnas.2313332121):

B1: TPR t1 (parent)
chain: GACCAAUCUGCCCUCAGAGCUCGAGAACAUCUUCGGAUGCAGAGGAGGCAGGCUUCGGUGGCGCGAUAGCGCCAACGUCCUCAACCUCCAAUGCAUCCCACCACAUGAUGAUGCCUGAAGAGCCUUGGUUUUUUG

Variants of: B1
Assay: polymerase ribozyme fitness, log enrichment relative to wild type (log ratio); higher = more active; in vitro selection for triplet polymerase activity
In short: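 Genotype fitness is the logarithm of its enrichment divided by wild-type enrichment, using inverse-variance-weighted averages of replicates. That logarithm is base 2. Enrichment was measured by Illumina sequencing of input and output libraries from one triplicate in vitro selection round, with frozen incubation at −7 °C, on PCR-built, transcribed mutant libraries of each subunit of a heterodimeric triplet polymerase ribozyme, retaining genotypes with ≥10 input reads and ≥1 read per output.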

Variant	polymerase ribozyme fitness (log ratio)
GACCAAUCUGCCCUCAGAGCUCGAGAACAUCUUCGGAUGCAGAGGAGGCAUGCUUCGGUGGCGCGAUAGCGCCAACGUCCUCAACCUCCAAUGCAUCCCACCACAUGAUGCUGCCUGAAGAGCCUUGGUUUUUUG [G51U A111C]	-4.77
GACCAAUCUGCCCUCAGAGCUCGAGAACAUCUUCGGAUGCAGAGGAGGCAUGCUUCGGUGGCGCGAUAGCGCCAACGUCCUCAACCUCCAAUGCAUCCCACCACAUGAUGUUGCCUGAAGAGCCUUGGUUUUUUG [G51U A111U]	-6.02
GACCAAUCUGCCCUCAGAGCUCGAGAACAUCUUCGGAUGCAGAGGAGGCAUGCUUCGGUGGUGCGAUAGCGCCAACGUCCUCAACCUCUAAUGCAUCCCACCACAUGAUGAUGCCUGAAGAGCCUUGGUUUUUUG [G51U C62U C89U]	-5
GACCAAUCUGCCCUCAGAGCUCGAGAACAUCUUCGGAUGCAGAGGAGGCAUGCUUCGGAGGCGCGAUAGCGCCAACGUCCUCAACCUCCAAUGCAUCCCACCACAUGAUGAUGCCUGAAGAGCCUUGGUUUUUUG [G51U U59A]	-2.98
GACCAAUCUGCCCUCAGAGCUCGAGAACAUCUUCGGAUGCAGAGGAGGCAUGCUUCGGUGGCGCGAUAGCGCUAACGUCCUCAACCUCCAAUGCAUCCCACCACAUGAUGACGCCUGAAGAGCCUUGGUUUUUUG [G51U C73U U112C]	-1.32
GACCAAUCUGCCCUCAGAGCUCGAGAACAUCUUCGGAUGCAGAGGAGGCAUGCUUCGGUGGCGCGAUUGCGCCAACGUCCUCAACCUCCAAUGCAUCCCACCACAGGAUUAUGCCUGAAGAGCAUUGGUUUUUUG [G51U A68U U106G G110U C124A]	-5.92
GACCAAUCUGCCCUCAGAGCUCGAGAACAUCUUCGGAUGCAGAGGAGGCAUGCUUCGGUGGCGCGAUAGCGCCAACGUCCUCAACCUCCAAUGCAUCCCACCACAUGAUGAUGCCUUAAGAGCCUUGGUUUUUUG [G51U G117U]	-5.83
GACCAAUCUGCCCUCAGAGCUCGAGAACAUCUUCGGAUGCAGAGGAGGCACGCUUCGGUAGCGCGAUAGCGCCAACGUCCUCAACCUCCAAUGCAUCCCACCACAUGAUGGUGCCUGAAGAGCCUUGGUUUUUUG [G51C G60A A111G]	-4.94
GACCAAUCUGCCCUCAGAGCUCGAGAACAUCUUCGGAUGCAGAGGAGGCAUGCUUCGGUGGCGCGAUAGCGCCAACGUCCUCAACCUCCAAUGCAUCCCACCACAUGAUGAUUCCUGAAGAGCCUUGGUUUUUUG [G51U G113U]	-6.05
GACCAAUCUGCCCUCAGAGCUCGAGAACAUCUUCGGAUGCAGAGGAGGCAUGCUGCGGUGGCGCGAUAGCGCCAACGUCCUCAACCUCCAAUGCAUCCCACCACAUGAUGAUGCCUGAAGAGCCUUGGUUUUUUG [G51U U55G]	-3.24
GACCAAUCUGCCCUCAGAGCUCGAGAACAUCUUCGGAUGCAGAGGAGGCACGGUUCGGUGUCGCGAUAGCGCCAACGUCCUCAACCUCCAAUGCAUCCCACCACAUGAUGAUGCCUGAAGAGCCUUGGUUUUUUG [G51C C53G G61U]	-2.56
GACCAAUCUGCCCUCAGAGCUCGAGAACAUCUUCGGAUGCAGAGGAGGCACUCUUCGGUGGCGCGAUAGCGCCAACGUCCUCAACCUCCAAUGCAUCCCACAACAUGAUGAUGCCUGAAGAGCAUUGGUUUUUUG [G51C G52U C102A C124A]	-4.54
GACCAAUCUGCCCUCAGAGCUCGAGAACAUCUUCGGAUGCAGAGGAGGCACGCUUCGGUGGCGCGAUAGCGCCAACGUCCUCAACCUCCAAUUCAUCCCACCACAUGAUGAUGCCUGAAGAGCCUUGGUUUUUUG [G51C G93U]	-5.19
GACCAAUCUGCCCUCAGAGCUCGAGAACAUCUUCGGAUGCAGAGGAGGCAAGCUUCGGUGGCGCGAUAGCGCCAACGUCCUCAACCUCCAAUGCAUCCCACCACAUGAUGAGGCCUGAAGAGCCUUGGUUUUUUG [G51A U112G]	-3.74
GACCAAUCUGCCCUCAGAGCUCGAGAACAUCUUCGGAUGCAGAGGAGGCAAGCUUCGGUGGCGCGAUAGCGCCAACGUCCUCAACCUCCAAUGCAUCCCACCACAUGAUGACGCCUGAAGAGCCUUGGUUUUUUG [G51A U112C]	-2.05
GACCAAUCUGCCCUCAGAGCUCGAGAACAUCUUCGGAUGCAGAGGAGGCACGCUUCGGUGGCGCGAUAGCGCCAACGUACUCAACCUCCAAUGCAUCCCACCACAUGAUGAUGCCUAAAGAGCCUUGGUUUUGUG [G51C C79A G117A U133G]	-5.7
GACCAAUCUGCCCUCAGAGCUCGAGAACAUCUUCGGAUGCAGAGGAGGCACGCUUCGGUGGCGUGAUAGCGCCAACGUCCUCAACCUCCAAUGCAUCCCACCACAUGAUGAUGCCUGAAGAGCCUUGGUUUUUUG [G51C C64U]	-3.9
GACCAAUCUGCCCUCAGAGCUCGAGAACAUCUUCGGAUGCAGAGGAGGCACGCUUCGGUGGCGCGAUAGCGCCAACGUCCUCAACCUCCAAUGCAUCCCUCCACAUGAUGAUGCCUGAAGAGCCUUGGUUUUUUG [G51C A100U]	-5.07
GACCAAUCUGCCCUCAGAGCUCGAGAACAUCUUCGGAUGCAGAGGAGGCAUGCUUCGGUGGCGCGAUAGCCCCAACGUCCUCAACCUCCAAUGCAUCCCACCACAUGAUGAUGCCUGAAGAGCCUUGGUUUUUUG [G51U G71C]	-5.37
GACCAAUCUGCCCUCAGAGCUCGAGAACAUCUUCGGAUGCAGAGGAGGCAUGCUUCGGUGGCGCGAUAGCGCCAAAGUCCUCAACCUCCAAUGCAUCCCACCACAAGAUGAUGCCUGAAGAGCCUUGGUUUUUUG [G51U C76A U106A]	-2
GACCAAUCUGCCCUCAGAGCUCGAGAACAUCUUCGGAUGCAGAGGAGGCACGCUUCGGUGGCGCGAUAGCGCCAACGUCCUCAACCUCCAUUGCAUCCCACCACAUGAUGAUCCCUGAAGAGCAUUGGUUUUUUG [G51C A91U G113C C124A]	-5.11
